Here are results for 41 sequences from the nanobody polyreactivity screen of Harvey et al. (2022).

A short description of this data set: yeast display, Sf9 membrane polyspecificity reagent, FACS + sequencing; frameworks hold sequencing errors. In a few lines: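 Using colony PCR, genes from sorted yeast display clones were amplified, then sequenced on MiSeq at 2 × 250 and filtered by CDR length. The clones had been stained with 10% biotinylated, detergent-solubilized Sf9 membrane reagent for 1 hour at 4 °C and sorted by FACS into low and high (top ~1%) gates on anti-HA and streptavidin fluorescence. Polyreactivity labels come from the gate of origin.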
As to “QVQLVESGGGLVQAGGSLRLSCAASGSIFPHYAMGWSRQAPGKEREFVATISGSTGRTYYADSVKGRFTISRDNAKNTVYLQMNSLKPEDTAVYYCATSVGYYLPPIKYDYWGQGTQVTVSS”, the “polyreactivity (PSR sort gate)” value was “low polyreactivity”.

In the case of “QVQLVESGGGLVQAGGSLRLSCAASGSIFPINAMGWSRQAPGKERELVAAITVSDGRTYYADSVKGRFTISRDNAKNTVYLQMNSLKPEDTAVYYCAAVTPFRVLYDYWGQGTQVTVSS”, the “polyreactivity (PSR sort gate)” value is “low polyreactivity”.

On to “QVQLVESGGGLVQAGGSLRLSCAASGSIFPIYAMGRYRQAPGKEMELVAAINRSGGSTYYADSVKGRFTISRDNAKNSVYLQMNSLIPEDTAVYYCNADYGYHNQLFWGYYGWSSDHWGQGTQVTVSS”, for which the “polyreactivity (PSR sort gate)” value is “low polyreactivity”.

On to “QVQLVESGGGLVQAGGSLRLSCAASGSIFPKYAMGWYRQAPGKERELVAAITSSGGRTYYADSVKGRFTISRDNAKNTVYLQMNSLKPEDTAVYYCAARSPRASGNSDYWGQGTQVTVSS”, for which the “polyreactivity (PSR sort gate)” value is listed as “high polyreactivity”.

“QVQLVESGGGLVQAGGSLRLSCAASGSIFPLYDMGWYRLAPGKERELVAGITGSGGSTYYADSVKGRFTISRDNAKNTVYLQMNSLKPEDTAVYYCAADYSLYGWWFRNDYWGQGTQVTVSS”: the “polyreactivity (PSR sort gate)” value was “low polyreactivity”.

With “QVQLVESGGGLVQAGGSLRLSCAASGSIFPPYTMGWYRQAPGKERELVAAISWGGGSTYYADSVKGRFTISRDNAKNTVYLQMNSLKPEDTAVYYCAAGRYYRGYYWGQGTQVTVSS”, the “polyreactivity (PSR sort gate)” value was “high polyreactivity”.

As for “QVQLVESGGGLVQAGGSLRLSCAASGSIFPPYVMGWYRQAPGKERELVASITTSGGSTYYADSVKGRFTISRDNAKNTVYLQIKSLKPEDTAVYYCAARWYYGGKSAGPGGGYWGQGTQVTVSA”, the “polyreactivity (PSR sort gate)” value is on record as “low polyreactivity”.

For “QVQLVESGGGLVQAGGSLRLSCAASGSIFPRNAMGWYRQAPGKERELVARINSGGTTKYADSVKGRFTISRDNAKYTVFLQMNSLKPEDTAGYYCNADTYILDPLRKSYGYDYWGQGTQVTVSS”, the “polyreactivity (PSR sort gate)” value is “low polyreactivity”.

“QVQLVESGGGLVQAGGSLRLSCAASGSIFPRYAMGWYSQAPGKERELVATISYRGGTTYYADSVKGRFTISRDNEKNTVYLQMNSLKPEDSAVYYCNTLYYRGIYDPWGQGTQVTVSS”: the “polyreactivity (PSR sort gate)” value was “high polyreactivity”.

“QVQLVESGGGLVQAGGSLRLSCAASGSIFPRYGMGLYRQAPGKERELVAAITTGGNTYYADSVKGRFTISRDNAKNTVYLQMNSLKPEDTAVYYCNARAVTPWFGFYYWGQGTQVTVSS”: the “polyreactivity (PSR sort gate)” value was “low polyreactivity”.

Take “QVQLVESGGGLVQAGGSLRLSCAASGSIFPSYAMGWYRQAPGKERELVAAINWDGGSTFYADSVKGRFTISRDNAKNTVYLQMKSLKPEDTAVYYCAAPDNYGGVGGITFWRMDYWGQGTQVTVSS”: the “polyreactivity (PSR sort gate)” value is recorded as “low polyreactivity”.

Regarding “QVQLVESGGGLVQAGGSLRLSCAASGSIFPSYAMGWYRQAPGKERELVATIGRGGTTNYADSVKGRFTISRDNAKNTVYLQMNSLKPEDTEVYYCNAERIWRYKYGYDYWGQGTQVTVSS”, the “polyreactivity (PSR sort gate)” value is “high polyreactivity”.

Consider “QVQLVESGGGLVQAGGSLRLSCAASGSIFPSYAMGWYRQAPGKERELVATISGSGTSTYYADSVKGRFTISRDNAKNTVYLQMNSLKPEDTAVYYSAADPWLGTGRYDYWGQGTQVTVSS”, for which the “polyreactivity (PSR sort gate)” value is “low polyreactivity”.

With “QVQLVESGGGLVQAGGSLRLSCAASGSIFPTNTMGWYRQAPGKERELVASINSDGSTNYADSVKGSFTISRDNAKNTVYLQMNSLKPEDTAVYYWAADTQGSEYEFWGQGTQVTVSS”, the “polyreactivity (PSR sort gate)” value is reported as “low polyreactivity”.

Take “QVQLVESGGGLVQAGGSLRLSCAASGSIFPTYALGWYRQAPGKERELVAAISSIVGGTYYADSVKGRFTISRDNAKNTVYLQMNSLKPEDTAVYYCNKTKFQGYDYWGQGTQVTVSS”: the “polyreactivity (PSR sort gate)” value is recorded as “low polyreactivity”.

For the sequence “QVQLVESGGGLVQAGGSLRLSCAASGSIFPTYVMGWYRQAPGKERELVAAISARGDSTYADSVKGRFTISRDNAKNTVYLQMNSLKPEDTAVYYCAKSAHSDYVYSRLEFGYWGQGTQVTVSS”, the “polyreactivity (PSR sort gate)” value was “low polyreactivity”.

“QVQLVESGGGLVQAGGSLRLSCAASGSIFPVNAMGWYRQAPGKERELVAAISSDGTTYYADSVKGRFTISRDNAKNTVYLQMNSLKPEDTAVYYCAKDRRYYKAYDYWGQGTLVTVSS”: the “polyreactivity (PSR sort gate)” value is on record as “low polyreactivity”.

Consider “QVQLVESGGGLVQAGGSLRLSCAASGSIFPVYAMGWYRQAPGKERELVASISTGGSTYYADSVKGRFTISRDNAKNTVYLQMNSLKPEDTAVYYCSATGWAYGYGYGYWGQGTQVTVSS”, for which the “polyreactivity (PSR sort gate)” value is “low polyreactivity”.

For the sequence “QVQLVESGGGLVQAGGSLRLSCAASGSIFPWNAMGWYRKAHGKARELVAVISQNGGRTYYADSVKGSFTISRDKAKNTVYLQMNSLKPEDTAVYYCAARPRLPRQIGGDGHLDDYWGQGTQVTVSS”, the “polyreactivity (PSR sort gate)” value is reported as “high polyreactivity”.

“QVQLVESGGGLVQAGGSLRLSCAASGSIFPWNAMGWYRQAPGKERELVAAISYSGTRTYYADSVKGRFTISRDNAKNTVYLQMNSLKPVDTAVYYCNARGYTRSYVKYDYWGQGTQVTVSS”: the “polyreactivity (PSR sort gate)” value is on record as “high polyreactivity”.

With “QVQLVESGGGLVQAGGSLRLSCAASGSIFPWYAMGWYRQAPWKERELVAGISSGGGTNYADSVKGRFTISRDNAKNTVYLQMNSMKPEDTAVYYCNADYFGGGDYWGQGTQVTVSS”, the “polyreactivity (PSR sort gate)” value is given as “low polyreactivity”.

Take “QVQLVESGGGLVQAGGSLRLSCAASGSIFPWYVMGWYRQAPRKERELVASITYRGASTYYADSVKGRFTISRDNAKNTVYLQMNSLKPEDTAVYYCADFRSYYSERHDYGYWGQGTQVTVSS”: the “polyreactivity (PSR sort gate)” value is “low polyreactivity”.

With “QVQLVESGGGLVQAGGSLRLSCAASGSIFPYNAMGWYRQAPGKERELVAAISRSGGSTYYADSVKGRFTISRDNAKNTVYLQMNSLKPEDTAVYYCAAYSLYWRDDYWGQGTQVTVSS”, the “polyreactivity (PSR sort gate)” value is on record as “high polyreactivity”.

For the sequence “QVQLVESGGGLVQAGGSLRLSCAASGSIFPYNAMGWYRQAPGKERELVATISSGGSTNYADSVKGRFTISRDNAKNTVYLQMNSLKPEDTAVYDCAADVIVFYYAPNYWGDIGYGYWGQGTQVTVSS”, the “polyreactivity (PSR sort gate)” value is “low polyreactivity”.

As for “QVQLVESGGGLVQAGGSLRLSCAASGSIFPYNVMGWYRQAPGKERELVAVITGSTGRTYYADSVKGRFTISRDNAKNTVYLQMNSLKPEDTAVYYCAKRRYWAPYDYWGQGTQVTVSS”, the “polyreactivity (PSR sort gate)” value is “high polyreactivity”.

As for “QVQLVESGGGLVQAGGSLRLSCAASGSIFPYYAMGWYRQAPGKEREFVAAITISGGSTYYADSVKGRFTISRDNAKNTVYLQMNSLKPEDTAVYYCNADKGYVYGDTFYQSGGYYSWGQGTQVTVSS”, the “polyreactivity (PSR sort gate)” value is recorded as “low polyreactivity”.

On to “QVQLVESGGGLVQAGGSLRLSCAASGSIFPYYAMGWYRQAPGKERELVAAISSGDITDYADSVKGRFTISRDNAKNTVYLQMNSLKPEDTAVYYCAAVYDLGYYGPIWAIVLDDYWGQGTQVTVSS”, for which the “polyreactivity (PSR sort gate)” value is “low polyreactivity”.

With “QVQLVESGGGLVQAGGSLRLSCAASGSIFPYYAMGWYRQAPGKERELVAAITLSGGRTYYADSVKGRFTISRDNAKNTVYLQMNSLKPEDTAVYYCNVYRSKKRYGWGEDDYWGQCTQVTVSS”, the “polyreactivity (PSR sort gate)” value was “high polyreactivity”.

Turning to “QVQLVESGGGLVQAGGSLRLSCAASGSIFPYYAMGWYRQAPGKETELVAVINSGGITNYADSVKGRFTISRDNAKNTVYLQMNSLKPEDTAVYYCAAAASPLTRHLYWGQGTQVTVSS”, the “polyreactivity (PSR sort gate)” value is given as “low polyreactivity”.

As to “QVQLVESGGGLVQAGGSLRLSCAASGSIFPYYTMGWYRQAPGKERELVAAISGSGTSTYYADSVKGRFTISRDNAKNTVYLQMNSLKPEDTADYYCAAPDPDKVRSEGYGYWGQGTHVTVSS”, the “polyreactivity (PSR sort gate)” value is given as “low polyreactivity”.

Take “QVQLVESGGGLVQAGGSLRLSCAASGSIFQAYVMGWYRQAPGTERELVATIDRRGGITYYADSVKGRFTISRDNAKNNVYLQMNSLKPEDTAVYYCATALIVLGPSRYEYWGQGTQVTVSS”: the “polyreactivity (PSR sort gate)” value is reported as “high polyreactivity”.

Regarding “QVQLVESGGGLVQAGGSLRLSCAASGSIFQDYAMGWYRQAPGKERELVAAITSDGSTYYADSVKGRFTISRDNAKNTVYLQMNSLKPEDTAVYYCATDKLYGRTVRMDYWGQGTQVTVSS”, the “polyreactivity (PSR sort gate)” value is reported as “low polyreactivity”.

Regarding “QVQLVESGGGLVQAGGSLRLSCAASGSIFQFNGMGWYRQAPGKERELVASINWSGGSTNYADSVMGRFTISRDNAKNTVYLQMNSLKAEDTAVYYCAVGHRIYRSRYNYWGQGTQVTVSS”, the “polyreactivity (PSR sort gate)” value is “low polyreactivity”.

As to “QVQLVESGGGLVQAGGSLRLSCAASGSIFQFYAMGWYRQAPGKERELVAAITGDGSTDYADSVKGRFTISRDNAKNTVYLQMNSLKPEDTAVYYCAADLWRYLGWYYIYHYDYWGQGTQVTVSS”, the “polyreactivity (PSR sort gate)” value was “low polyreactivity”.

“QVQLVESGGGLVQAGGSLRLSCAASGSIFQGNVMGWYRQAPGKERELVAAIRNSGGTTYYADSVKGRFTISRDNAKNTVYLQMNSLKPEDTAVYYCAARYINRYPKAQPTDRSIYYWGQGTQVTVSS”: the “polyreactivity (PSR sort gate)” value is given as “high polyreactivity”.

For the sequence “QVQLVESGGGLVQAGGSLRLSCAASGSIFQGYAMGWYRQAPGKERELVAAITYSGGRTYYADSVKGRFTISRDNAKNTVYLQMNSLKPEDTAVYYCAALTRRVKKYDYWGQGTQVTVSS”, the “polyreactivity (PSR sort gate)” value is given as “high polyreactivity”.

Take “QVQLVESGGGLVQAGGSLRLSCAASGSIFQGYAMGWYRQAPGKERELVAGITSSGGRTRYADSVKGRFTISRDNAKNTVFLQMNSLKPEDTAVYYCAADYVRHIGYNYWGQGTQVTVSS”: the “polyreactivity (PSR sort gate)” value was “high polyreactivity”.

On to “QVQLVESGGGLVQAGGSLRLSCAASGSIFQGYSMGWYRQAPGKERELVAAITASGGSTYYADSVKGRFTISRDNAKNTVYLQMNSLKPEDTAVYYCATDSYWRQDLYRYEYWGQGTQVTVSS”, for which the “polyreactivity (PSR sort gate)” value was “high polyreactivity”.

Take “QVQLVESGGGLVQAGGSLRLSCAASGSIFQIYAMGWYRPAPGKERELVAAINSGGITKYADSVKGRFTISRDNAKNTVYLQMNSLKPEDTAVYYCAKRYGWPYGRFDYWGQGTQVTVSS”: the “polyreactivity (PSR sort gate)” value is reported as “low polyreactivity”.

In the case of “QVQLVESGGGLVQAGGSLRLSCAASGSIFQPNAMGWYRQAPGKERELVASIRGRGGDTYYADSVKGRFTISRDTAKNTVYLQMNSLKPEDTAVYYCAADYRWGQGTQVTVSS”, the “polyreactivity (PSR sort gate)” value is reported as “low polyreactivity”.

Regarding “QVQLVESGGGLVQAGGSLRLSCAASGSIFQWYAMGWYRQAPGKERELVAAISWDGDSTYYADSVKGRFTISRDNAKNTVYLQMNSMNPEDTAVYYCAADYEWEYEYWGQGTQVTVSS”, the “polyreactivity (PSR sort gate)” value was “high polyreactivity”.
